# Laboratory results published in paper PMC7794242, “Cryo-EM analysis of the HCoV-229E spike glycoprotein reveals dynamic prefusion conformational changes” (Nature Communications, 2021).
# Experiments:
# [1] = biological target: T1, HCoV-229E S glycoprotein wild-type soluble ectodomain (residues 1-1116) with C-terminal GCN4 trimerization … (HCoV-229E, UniProt P15423 16-1116); assay: SPR; OpenSPR; hAPN immobilised on COOH sensor chip; S trimer peak 2 sample injected at 0, 6.25, 12.5, 25 and 50 nM; HBS-EP+ buffer; 298 K; one-to-one binding model; details: both partners purified
# [2] = biological target: T1, HCoV-229E S glycoprotein wild-type …; assay: SPR; OpenSPR; hAPN immobilised on COOH sensor chip; S trimer peak 3 sample injected at 0, 3.13, 6.25, 12.5 and 25 nM; HBS-EP+ buffer; 298 K; one-to-one binding model; details: both partners purified
binder,measurement,setting,value
human aminopeptidase N (receptor) DQSKAWNRYRLPNTLKPDSYRVTLRPYLTPNDRGLYVFKGSSTVRFTCKEATDVIIIHSKKLNYTLSQGHRVVLRGVGGSQPPDIDKTELVEPTEYLVVHLKGSLVKDSQYEMDSEFEGELADDLAGFYRSEYMEGNVRKVVATTQMQAADARKSFPCFDEPAMKAEFNITLIHPKDLTALSNMLPKGPSTPLPEDPNWNVTEFHTTPKMSTYLLAFIVSEFDYVEKQASNGVLIRIWARPSAIAAGHGDYALNVTGPILNFFAGHYDTPYPLPKSDQIGLPDFNAGAMENWGLVTYRENSLLFDPLSSSSSNKERVVTVIAHELAHQWFGNLVTIEWWNDLWLNEGFASYVEYLGADYAEPTWNLKDLMVLNDVYRVMAVDALASSHPLSTPASEINTPAQISELFDAISYSKGASVLRMLSSFLSEDVFKQGLASYLHTFAYQNTIYLNLWDHLQEAVNNRSIQLPTTVRDIMNRWTLQMGFPVITVDTSTGTLSQEHFLLDPDSNVTRPSEFNYVWIVPITSIRDGRQQQDYWLIDVRAQNDLFSTSGNEWVLLNLNVTGYYRVNYDEENWRKIQTQLQRDHSAIPVINRAQIINDAFNLASAHKVPVTLALNNTLFLIEERQYMPWEAALSSLSYFKLMFDRSEVYGPMKNYLKKQVTPLFIHFRNNTNNWREIPENLMDQYSEVNAISTACSNGVPECEEMVSGLFKQWMENPNNNPIHPNLRSTVYCNAIAQGGEEEWDFAWEQFRNATLVNEADKLRAALACSKELWILNRYLSYTLNPDLIRKQDATSTIISITNNVIGQGLVWDFVQSNWKKLFNDYGGGSFSFSNLIQAVTRRFSTEYELQQLEQFKKDNEETGFGSGTRALEQALEKTKANIKWVKENKEVVLQWFTENSK,Kd,[1],36.3 nM
same,koff,[1],0.00115 s⁻¹
same,kon,[1],31800 M⁻¹ s⁻¹
same,Kd,[2],6.78 nM
same,koff,[2],0.000485 s⁻¹
same,kon,[2],71500 M⁻¹ s⁻¹
